Measured values reported in patent US20170190753A1 (LABORATOIRE FRANCAIS DU FRACTIONNEMENT ET DES …, published 2017).

Target: C3 convertase complex (UniProt P01024 23-1663; P00751 260-764)
Assay: cell-based or functional assay
Wherever C3 convertase activity % of the control is given: test concentration or dose not given here.

Sequence of C3 convertase complex (P01024 23-1663, chain 1 of 2): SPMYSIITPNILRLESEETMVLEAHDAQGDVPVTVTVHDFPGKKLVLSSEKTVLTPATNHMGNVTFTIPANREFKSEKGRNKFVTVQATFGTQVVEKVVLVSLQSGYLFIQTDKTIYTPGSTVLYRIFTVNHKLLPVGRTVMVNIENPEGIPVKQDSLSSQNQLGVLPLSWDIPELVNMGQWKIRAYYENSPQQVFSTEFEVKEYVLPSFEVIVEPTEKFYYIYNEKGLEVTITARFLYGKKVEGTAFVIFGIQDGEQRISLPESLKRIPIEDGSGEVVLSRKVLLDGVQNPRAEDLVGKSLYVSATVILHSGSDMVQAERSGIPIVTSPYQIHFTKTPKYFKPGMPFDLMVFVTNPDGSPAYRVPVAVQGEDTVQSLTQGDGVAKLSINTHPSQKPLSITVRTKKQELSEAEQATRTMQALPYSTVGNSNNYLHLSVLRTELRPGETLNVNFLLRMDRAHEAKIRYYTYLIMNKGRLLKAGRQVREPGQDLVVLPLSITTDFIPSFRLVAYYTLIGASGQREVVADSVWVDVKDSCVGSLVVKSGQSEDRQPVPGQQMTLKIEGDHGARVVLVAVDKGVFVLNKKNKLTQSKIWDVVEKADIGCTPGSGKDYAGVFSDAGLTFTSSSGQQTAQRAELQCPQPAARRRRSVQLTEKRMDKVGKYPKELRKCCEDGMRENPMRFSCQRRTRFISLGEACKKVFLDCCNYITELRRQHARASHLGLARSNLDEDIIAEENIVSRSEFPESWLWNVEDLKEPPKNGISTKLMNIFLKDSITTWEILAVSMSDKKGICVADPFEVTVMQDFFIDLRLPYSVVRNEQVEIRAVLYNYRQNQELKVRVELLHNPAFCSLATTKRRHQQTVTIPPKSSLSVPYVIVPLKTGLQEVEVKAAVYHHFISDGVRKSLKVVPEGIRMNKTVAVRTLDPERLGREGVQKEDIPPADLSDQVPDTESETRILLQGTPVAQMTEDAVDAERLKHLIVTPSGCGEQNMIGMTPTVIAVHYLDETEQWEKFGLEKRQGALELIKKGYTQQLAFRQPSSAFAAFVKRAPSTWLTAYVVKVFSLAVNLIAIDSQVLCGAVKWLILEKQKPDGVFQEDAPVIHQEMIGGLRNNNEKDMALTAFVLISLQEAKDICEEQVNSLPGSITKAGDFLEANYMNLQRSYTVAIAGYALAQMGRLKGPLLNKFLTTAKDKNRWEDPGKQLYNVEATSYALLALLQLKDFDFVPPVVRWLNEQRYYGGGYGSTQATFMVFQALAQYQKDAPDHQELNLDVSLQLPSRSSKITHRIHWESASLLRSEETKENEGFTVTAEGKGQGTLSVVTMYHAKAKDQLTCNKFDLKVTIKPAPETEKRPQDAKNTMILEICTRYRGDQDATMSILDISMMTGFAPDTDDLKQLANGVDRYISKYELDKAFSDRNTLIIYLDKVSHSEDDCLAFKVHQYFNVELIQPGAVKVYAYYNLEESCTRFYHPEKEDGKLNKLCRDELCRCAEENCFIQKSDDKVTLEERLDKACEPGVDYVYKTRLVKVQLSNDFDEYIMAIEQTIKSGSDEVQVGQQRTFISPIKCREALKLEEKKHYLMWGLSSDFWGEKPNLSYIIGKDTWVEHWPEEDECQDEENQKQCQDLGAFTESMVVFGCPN
Sequence of C3 convertase complex (P00751 260-764, chain 2 of 2): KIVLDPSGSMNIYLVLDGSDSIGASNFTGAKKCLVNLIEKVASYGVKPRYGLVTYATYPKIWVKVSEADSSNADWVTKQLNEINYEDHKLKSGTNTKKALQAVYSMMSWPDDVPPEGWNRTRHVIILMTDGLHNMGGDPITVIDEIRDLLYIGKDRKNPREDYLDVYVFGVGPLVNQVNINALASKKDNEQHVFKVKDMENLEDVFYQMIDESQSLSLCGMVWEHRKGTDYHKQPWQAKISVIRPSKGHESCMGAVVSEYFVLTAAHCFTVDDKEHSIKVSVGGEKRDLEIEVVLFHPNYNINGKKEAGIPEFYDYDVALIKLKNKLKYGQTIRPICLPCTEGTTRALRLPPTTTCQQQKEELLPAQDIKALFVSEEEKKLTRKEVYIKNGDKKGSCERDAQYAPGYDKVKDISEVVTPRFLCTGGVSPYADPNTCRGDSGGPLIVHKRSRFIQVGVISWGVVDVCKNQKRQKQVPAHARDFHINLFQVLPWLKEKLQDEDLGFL

B1: pCEP4-1NT4-19CT20 (other)
chain: EDCNELPPRRNTEILTGSWSDQTYPEGTQAIYKCRPGYRSLGNVIMVCRKGEWVALNPLRKCQKRPCGHPGDTPFGTFTLTGGNVFEYGVKAVYTCNEGYQLLGEINYRECDTDGWTNDIPICEVVKCLPVTAPENGKIVSSAMEPDREYHFGQAVRFVCNSGYKIEGDEEMHCSDDGFWSKEKPKCVEISCKSPDVINGSPISQKIIYKENERFQYKCNMGYEYSERGDAVCTESGWRPLPSCEEKSGASGCGPPPPIDNGDITSFPLSVYAPASSVEYQCQNLYQLEGNKRITCRNGQWSEPPKCLHPCVISREIMENYNIALRWTAKQKLYSRTGESVEFVCKRGYRLSSRSHTLRTTCWDGKLEYPTCAKRGGSGHHHHHH
C3 convertase activity % of the control: 73 % of the control
C3 convertase activity IC50: 0.0916 µg/mL

B2: pCEP4-1NT7-8CT20 (other)
chain: EDCNELPPRRNTEILTGSWSDQTYPEGTQAIYKCRPGYRSLGNVIMVCRKGEWVALNPLRKCQKRPCGHPGDTPFGTFTLTGGNVFEYGVKAVYTCNEGYQLLGEINYRECDTDGWTNDIPICEVVKCLPVTAPENGKIVSSAMEPDREYHFGQAVRFVCNSGYKIEGDEEMHCSDDGFWSKEKPKCVEISCKSPDVINGSPISQKIIYKENERFQYKCNMGYEYSERGDAVCTESGWRPLPSCEEKSCDNPYIPNGDYSPLRIKHRTGDEITYQCRNGFYPATRGNTAKCTSTGWIPAPRCTLKPCDYPDIKHGGLYHENMRRPYFPVAVGKYYSYYCDEHFETPSGSYWDHIHCTQDGWSPAVPCLRKCYFPYLENGYNQNYGRKFVQGKSIDVACHPGYALPKAQTTVTCMENGWSPTPRCIRVKTGASGCSKSSIDIENGFISESQYTYALKEKAKYQCKLGYVTADGETSGSITCGKDGWSAQPTCIKSCDIPVFMNARTKNDFTWFKLNDTLDYECHDGYESNTGSTTGSIVCGYNGWSDLPICYERECELPKIDVHLVPDRKKDQYKVGEVLKFSCKPGFTIVGPNSVQCYHFGLSPDLPICKEQVQSCGPPPELLNGNVKEKTKEEYGHSEVVEYYCNPRFLMKGPNKIQCVDGEWTTLPVCIVEESTCGDIPELEHGWAQLSSPPYYYGDSVEFNCSESFTMIGHRSITCIHGVWTQLPQCVAIDKLKKCKSSNLIILEEHLKNKKEFDHNSNIRYRCRGKEGWIHTVCINGRWDPEVNCSMAQIQLCPPPPQIPNSHNMTTTLNYRDGEKVSVLCQENYLIQEGEEITCKDGRWQSIPLCVEKIPCSQPPQIEHGTINSSRSSQESYAHGTKLSYTCEGGFRISEENETTCYMGKWSSPPQCEGLPCKSPPEISHGVVAHMSDSYQYGEEVTYKCFEGFGIDGPAIAKCLGEKWSHPPSCIKTDCLSLPSFENAIPMGEKKDVYKAGEQVTYTCATYYKMDGASNVTCINSRWTGRPTCRDTSCVNPPTVQNAYIVSRQMSKYPSGERVRYQCRSPYEMFGDEEVMCLNGNWTEPPQCKDSTGKCGPPPPIDNGDITSFPLSVYAPASSVEYQCQNLYQLEGNKRITCRNGQWSEPPKCLHPCVISREIMENYNIALRWTAKQKLYSRTGESVEFVCKRGYRLSSRSHTLRTTCWDGKLEYPTCAKRGGSGHHHHHH
C3 convertase activity % of the control: 72 % of the control
C3 convertase activity IC50: 0.542 µg/mL

B3: pCEP4-1NT9-11CT20 (other)
chain: EDCNELPPRRNTEILTGSWSDQTYPEGTQAIYKCRPGYRSLGNVIMVCRKGEWVALNPLRKCQKRPCGHPGDTPFGTFTLTGGNVFEYGVKAVYTCNEGYQLLGEINYRECDTDGWTNDIPICEVVKCLPVTAPENGKIVSSAMEPDREYHFGQAVRFVCNSGYKIEGDEEMHCSDDGFWSKEKPKCVEISCKSPDVINGSPISQKIIYKENERFQYKCNMGYEYSERGDAVCTESGWRPLPSCEEKSCDNPYIPNGDYSPLRIKHRTGDEITYQCRNGFYPATRGNTAKCTSTGWIPAPRCTLKPCDYPDIKHGGLYHENMRRPYFPVAVGKYYSYYCDEHFETPSGSYWDHIHCTQDGWSPAVPCLRKCYFPYLENGYNQNHGRKFVQGKSIDVACHPGYALPKAQTTVTCMENGWSPTPRCIRVKTCSKSSIDIENGFISESQYTYALKEKAKYQCKLGYVTADGETSGSITCGKDGWSAQPTCIKSCDIPVFMNARTKNDFTWFKLNDTLDYECHDGYESNTGSTTGSIVCGYNGWSDLPICYEREGASGCGPPPELLNGNVKEKTKEEYGHSEVVEYYCNPRFLMKGPNKIQCVDGEWTTLPVCIVEESTCGDIPELEHGWAQLSSPPYYYGDSVEFNCSESFTMIGHRSITCIHGVWTQLPQCVAIDKLKKCKSSNLIILEEHLKNKKEFDHNSNIRYRCRGKEGWIHTVCINGRWDPEVNCSMAQIQLCPPPPQIPNSHNMTTTLNYRDGEKVSVLCQENYLIQEGEEITCKDGRWQSIPLCVEKIPCSQPPQIEHGTINSSRSSQESYAHGTKLSYTCEGGFRISEENETTCYMGKWSSPPQCEGLPCKSPPEISHGVVAHMSDSYQYGEEVTYKCFEGFGIDGPAIAKCLGEKWSHPPSCIKTDCLSLPSFENAIPMGEKKDVYKAGEQVTYTCATYYKMDGASNVTCINSRWTGRPTCRDTSCVNPPTVQNAYIVSRQMSKYPSGERVRYQCRSPYEMFGDEEVMCLNGNWTEPPQCKDSTGKCGPPPPIDNGDITSFPLSVYAPASSVEYQCQNLYQLEGNKRITCRNGQWSEPPKCLHPCVISREIMENYNIALRWTAKQKLYSRTGESVEFVCKRGYRLSSRSHTLRTTCWDGKLEYPTCAKRGGSGHHHHHH
C3 convertase activity % of the control: 69 % of the control
C3 convertase activity IC50: 0.172 µg/mL

B4: pCEP4-1NT8-11CT20 (other)
chain: EDCNELPPRRNTEILTGSWSDQTYPEGTQAIYKCRPGYRSLGNVIMVCRKGEWVALNPLRKCQKRPCGHPGDTPFGTFTLTGGNVFEYGVKAVYTCNEGYQLLGEINYRECDTDGWTNDIPICEVVKCLPVTAPENGKIVSSAMEPDREYHFGQAVRFVCNSGYKIEGDEEMHCSDDGFWSKEKPKCVEISCKSPDVINGSPISQKIIYKENERFQYKCNMGYEYSERGDAVCTESGWRPLPSCEEKSCDNPYIPNGDYSPLRIKHRTGDEITYQCRNGFYPATRGNTAKCTSTGWIPAPRCTLKPCDYPDIKHGGLYHENMRRPYFPVAVGKYYSYYCDEHFETPSGSYWDHIHCTQDGWSPAVPCLRKCYFPYLENGYNQNYGRKFVQGKSIDVACHPGYALPKAQTTVTCMENGWSPTPRCIRVKTCSKSSIDIENGFISESQYTYALKEKAKYQCKLGYVTADGETSGSITCGKDGWSAQPTCIKSGASGCGPPPELLNGNVKEKTKEEYGHSEVVEYYCNPRFLMKGPNKIQCVDGEWTTLPVCIVEESTCGDIPELEHGWAQLSSPPYYYGDSVEFNCSESFTMIGHRSITCIHGVWTQLPQCVAIDKLKKCKSSNLIILEEHLKNKKEFDHNSNIRYRCRGKEGWIHTVCINGRWDPEVNCSMAQIQLCPPPPQIPNSHNMTTTLNYRDGEKVSVLCQENYLIQEGEEITCKDGRWQSIPLCVEKIPCSQPPQIEHGTINSSRSSQESYAHGTKLSYTCEGGFRISEENETTCYMGKWSSPPQCEGLPCKSPPEISHGVVAHMSDSYQYGEEVTYKCFEGFGIDGPAIAKCLGEKWSHPPSCIKTDCLSLPSFENAIPMGEKKDVYKAGEQVTYTCATYYKMDGASNVTCINSRWTGRPTCRDTSCVNPPTVQNAYIVSRQMSKYPSGERVRYQCRSPYEMFGDEEVMCLNGNWTEPPQCKDSTGKCGPPPPIDNGDITSFPLSVYAPASSVEYQCQNLYQLEGNKRITCRNGQWSEPPKCLHPCVISREIMENYNIALRWTAKQKLYSRTGESVEFVCKRGYRLSSRSHTLRTTCWDGKLEYPTCAKRGGSGHHHHHH
C3 convertase activity % of the control: 77 % of the control
C3 convertase activity IC50: 0.471 µg/mL
